Assay in all cases: Kinase Profiling Assay
Common to all, as to format: biochemical

One assay addresses Ret(V804M)(h) (Homo sapiens, UniProt P07949, V804M).
A further assay concerns the target Snk(h) (Homo sapiens, UniProt Q9NYY3).
The target in another assay is T1, MKK6(h) (Homo sapiens, UniProt P52564).
T1 sequence (P52564 1-334): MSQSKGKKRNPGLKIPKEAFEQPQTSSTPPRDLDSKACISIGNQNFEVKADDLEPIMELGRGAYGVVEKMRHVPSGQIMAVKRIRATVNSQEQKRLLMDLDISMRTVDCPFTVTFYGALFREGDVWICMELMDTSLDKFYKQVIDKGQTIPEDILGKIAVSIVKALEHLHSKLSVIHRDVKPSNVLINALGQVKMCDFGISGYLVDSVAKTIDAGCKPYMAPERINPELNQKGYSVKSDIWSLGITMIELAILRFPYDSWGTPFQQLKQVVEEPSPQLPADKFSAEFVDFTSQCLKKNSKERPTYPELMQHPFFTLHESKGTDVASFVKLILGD
Conditions: 100 μM.

In another assay the target is PKBα(h) (Homo sapiens, UniProt P31749). The settings on record: 100 μM.
Sequence of PKBα(h) (P31749 whole entry): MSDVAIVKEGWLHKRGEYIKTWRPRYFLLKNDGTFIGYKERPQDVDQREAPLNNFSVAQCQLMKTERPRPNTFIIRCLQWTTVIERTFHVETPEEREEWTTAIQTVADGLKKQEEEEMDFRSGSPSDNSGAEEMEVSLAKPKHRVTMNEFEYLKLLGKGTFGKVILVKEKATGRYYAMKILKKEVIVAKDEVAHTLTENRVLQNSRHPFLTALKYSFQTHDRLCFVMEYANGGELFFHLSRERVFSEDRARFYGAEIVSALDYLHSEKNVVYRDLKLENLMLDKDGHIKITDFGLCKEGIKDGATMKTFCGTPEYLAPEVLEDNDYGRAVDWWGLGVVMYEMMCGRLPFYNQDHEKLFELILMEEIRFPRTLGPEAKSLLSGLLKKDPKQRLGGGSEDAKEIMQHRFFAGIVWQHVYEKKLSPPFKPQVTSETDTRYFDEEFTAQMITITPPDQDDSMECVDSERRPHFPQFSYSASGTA
For another assay, the target named is PKCγ(h) (Homo sapiens, UniProt P05129). Conditions: 100 μM.
A further assay addresses T2, PKCϵ(h) (Homo sapiens, UniProt Q02156).
T2 sequence (Q02156 1-737): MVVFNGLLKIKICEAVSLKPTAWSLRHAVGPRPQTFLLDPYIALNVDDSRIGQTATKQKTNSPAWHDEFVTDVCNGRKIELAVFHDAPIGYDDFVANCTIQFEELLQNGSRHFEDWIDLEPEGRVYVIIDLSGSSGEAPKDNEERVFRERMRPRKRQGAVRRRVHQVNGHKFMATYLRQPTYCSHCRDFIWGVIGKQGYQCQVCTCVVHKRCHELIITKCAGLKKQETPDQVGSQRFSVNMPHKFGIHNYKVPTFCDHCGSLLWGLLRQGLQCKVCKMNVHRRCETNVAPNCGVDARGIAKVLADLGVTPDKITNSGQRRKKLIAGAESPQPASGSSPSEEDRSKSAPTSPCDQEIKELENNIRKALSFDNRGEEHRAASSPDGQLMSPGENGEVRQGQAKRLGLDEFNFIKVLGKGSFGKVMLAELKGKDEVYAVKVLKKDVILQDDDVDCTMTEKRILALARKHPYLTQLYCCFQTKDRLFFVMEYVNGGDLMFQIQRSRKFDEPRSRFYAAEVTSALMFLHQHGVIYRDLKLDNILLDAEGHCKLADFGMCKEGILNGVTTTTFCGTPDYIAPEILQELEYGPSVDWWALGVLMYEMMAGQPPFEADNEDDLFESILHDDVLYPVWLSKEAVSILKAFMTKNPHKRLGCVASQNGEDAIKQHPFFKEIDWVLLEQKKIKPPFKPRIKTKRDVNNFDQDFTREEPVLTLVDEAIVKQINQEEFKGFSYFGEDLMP
The settings on record: 100 μM.

A further assay deals with Hck(h) activated (Homo sapiens, UniProt P08631). Conditions: 100 μM.
Sequence of Hck(h) activated (P08631 whole entry): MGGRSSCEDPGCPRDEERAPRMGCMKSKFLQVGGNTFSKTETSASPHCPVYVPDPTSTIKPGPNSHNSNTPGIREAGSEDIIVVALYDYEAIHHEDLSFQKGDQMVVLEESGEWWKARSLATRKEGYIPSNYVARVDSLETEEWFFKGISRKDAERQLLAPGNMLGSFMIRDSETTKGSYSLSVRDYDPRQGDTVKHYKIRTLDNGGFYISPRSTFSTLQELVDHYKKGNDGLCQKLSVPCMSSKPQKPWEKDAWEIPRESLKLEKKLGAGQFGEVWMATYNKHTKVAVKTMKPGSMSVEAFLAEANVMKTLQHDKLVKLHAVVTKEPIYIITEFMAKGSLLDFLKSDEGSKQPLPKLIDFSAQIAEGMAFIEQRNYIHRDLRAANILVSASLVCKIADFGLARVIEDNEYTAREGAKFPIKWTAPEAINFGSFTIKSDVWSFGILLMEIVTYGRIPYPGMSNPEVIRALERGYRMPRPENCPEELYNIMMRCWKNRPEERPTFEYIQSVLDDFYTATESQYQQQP
In the next assay the target is CaMKIIβ(h) (Homo sapiens, UniProt Q13554). The settings on record: 100 μM.
Sequence of CaMKIIβ(h) (Q13554 whole entry): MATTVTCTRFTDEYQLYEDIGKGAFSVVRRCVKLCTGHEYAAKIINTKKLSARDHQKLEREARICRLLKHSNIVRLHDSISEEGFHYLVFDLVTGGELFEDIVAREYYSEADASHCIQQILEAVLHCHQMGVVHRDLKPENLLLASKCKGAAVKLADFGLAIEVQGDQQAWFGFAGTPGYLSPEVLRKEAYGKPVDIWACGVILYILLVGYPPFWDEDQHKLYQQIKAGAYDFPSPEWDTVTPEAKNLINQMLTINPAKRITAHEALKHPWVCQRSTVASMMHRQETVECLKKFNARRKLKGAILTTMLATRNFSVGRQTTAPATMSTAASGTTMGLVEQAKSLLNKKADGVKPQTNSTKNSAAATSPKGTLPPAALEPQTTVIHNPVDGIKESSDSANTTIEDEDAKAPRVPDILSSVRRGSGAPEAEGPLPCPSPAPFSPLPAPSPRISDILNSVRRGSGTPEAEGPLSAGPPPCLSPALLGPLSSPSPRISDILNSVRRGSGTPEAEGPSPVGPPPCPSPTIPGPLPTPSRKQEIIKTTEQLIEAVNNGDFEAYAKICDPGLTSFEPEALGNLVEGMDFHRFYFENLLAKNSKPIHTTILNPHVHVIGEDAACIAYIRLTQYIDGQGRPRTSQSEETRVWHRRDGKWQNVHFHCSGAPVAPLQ
In another assay the target is PKA(h) (Homo sapiens, UniProt P17612). Conditions: 100 μM.
In the next assay the target is IR(h) (Homo sapiens, UniProt P06213). The settings on record: 100 μM.
The target of another assay is Fer(h) (Homo sapiens, UniProt P16591). The settings on record: 100 μM.
Sequence of Fer(h) (P16591 whole entry): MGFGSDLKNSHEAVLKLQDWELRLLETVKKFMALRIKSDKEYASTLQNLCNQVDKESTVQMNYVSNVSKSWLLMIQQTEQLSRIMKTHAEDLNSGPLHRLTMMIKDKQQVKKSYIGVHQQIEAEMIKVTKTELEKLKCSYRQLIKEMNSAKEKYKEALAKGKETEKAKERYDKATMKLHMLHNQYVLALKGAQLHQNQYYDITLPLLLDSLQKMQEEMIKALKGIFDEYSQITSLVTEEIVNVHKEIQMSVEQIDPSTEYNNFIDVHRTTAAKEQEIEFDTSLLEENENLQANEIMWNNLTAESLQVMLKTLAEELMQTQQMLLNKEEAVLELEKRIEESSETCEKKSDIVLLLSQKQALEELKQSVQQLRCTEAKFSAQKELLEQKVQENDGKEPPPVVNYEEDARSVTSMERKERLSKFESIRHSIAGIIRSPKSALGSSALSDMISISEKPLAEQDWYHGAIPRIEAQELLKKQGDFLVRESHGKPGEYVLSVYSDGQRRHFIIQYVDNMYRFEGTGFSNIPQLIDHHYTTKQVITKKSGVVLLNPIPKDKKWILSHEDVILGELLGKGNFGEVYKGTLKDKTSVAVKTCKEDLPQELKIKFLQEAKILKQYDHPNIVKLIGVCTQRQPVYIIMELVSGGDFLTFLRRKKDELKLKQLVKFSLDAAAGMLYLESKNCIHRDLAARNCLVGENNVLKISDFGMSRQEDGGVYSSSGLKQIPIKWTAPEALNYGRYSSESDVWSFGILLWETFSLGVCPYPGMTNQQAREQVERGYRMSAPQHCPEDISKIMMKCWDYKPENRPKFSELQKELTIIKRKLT
For a further assay, the target named is Pim-1(h) (Homo sapiens, UniProt P11309). The settings on record: 100 μM.
Sequence of Pim-1(h) (P11309 whole entry): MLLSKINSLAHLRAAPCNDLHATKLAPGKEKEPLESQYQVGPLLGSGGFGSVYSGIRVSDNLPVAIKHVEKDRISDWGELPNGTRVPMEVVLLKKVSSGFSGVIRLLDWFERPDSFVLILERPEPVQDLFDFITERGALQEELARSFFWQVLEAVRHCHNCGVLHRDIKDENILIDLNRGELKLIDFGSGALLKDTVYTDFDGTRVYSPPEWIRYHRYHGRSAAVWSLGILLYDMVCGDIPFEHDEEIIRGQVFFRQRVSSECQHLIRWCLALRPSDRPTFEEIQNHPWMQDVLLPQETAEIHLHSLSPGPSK
The target of a further assay is T3, MST1(h) (Homo sapiens, UniProt Q13043).
T3 sequence (Q13043 1-487): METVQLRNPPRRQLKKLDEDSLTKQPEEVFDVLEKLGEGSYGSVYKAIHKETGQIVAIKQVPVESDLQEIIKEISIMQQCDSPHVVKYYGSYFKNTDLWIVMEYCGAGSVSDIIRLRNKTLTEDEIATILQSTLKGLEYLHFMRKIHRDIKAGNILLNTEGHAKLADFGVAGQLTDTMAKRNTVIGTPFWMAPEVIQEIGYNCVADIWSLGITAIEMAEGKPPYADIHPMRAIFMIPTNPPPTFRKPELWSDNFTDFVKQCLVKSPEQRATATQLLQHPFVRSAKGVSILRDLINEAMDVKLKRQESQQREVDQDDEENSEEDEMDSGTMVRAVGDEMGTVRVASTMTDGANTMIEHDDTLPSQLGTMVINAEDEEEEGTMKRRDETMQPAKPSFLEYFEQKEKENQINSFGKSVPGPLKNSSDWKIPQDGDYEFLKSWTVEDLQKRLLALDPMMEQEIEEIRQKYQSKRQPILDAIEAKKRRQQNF
Conditions: 100 μM.

The target in the next assay is MSK2(h) (Homo sapiens, UniProt O75676). Conditions: 100 μM.
Sequence of MSK2(h) (O75676 whole entry): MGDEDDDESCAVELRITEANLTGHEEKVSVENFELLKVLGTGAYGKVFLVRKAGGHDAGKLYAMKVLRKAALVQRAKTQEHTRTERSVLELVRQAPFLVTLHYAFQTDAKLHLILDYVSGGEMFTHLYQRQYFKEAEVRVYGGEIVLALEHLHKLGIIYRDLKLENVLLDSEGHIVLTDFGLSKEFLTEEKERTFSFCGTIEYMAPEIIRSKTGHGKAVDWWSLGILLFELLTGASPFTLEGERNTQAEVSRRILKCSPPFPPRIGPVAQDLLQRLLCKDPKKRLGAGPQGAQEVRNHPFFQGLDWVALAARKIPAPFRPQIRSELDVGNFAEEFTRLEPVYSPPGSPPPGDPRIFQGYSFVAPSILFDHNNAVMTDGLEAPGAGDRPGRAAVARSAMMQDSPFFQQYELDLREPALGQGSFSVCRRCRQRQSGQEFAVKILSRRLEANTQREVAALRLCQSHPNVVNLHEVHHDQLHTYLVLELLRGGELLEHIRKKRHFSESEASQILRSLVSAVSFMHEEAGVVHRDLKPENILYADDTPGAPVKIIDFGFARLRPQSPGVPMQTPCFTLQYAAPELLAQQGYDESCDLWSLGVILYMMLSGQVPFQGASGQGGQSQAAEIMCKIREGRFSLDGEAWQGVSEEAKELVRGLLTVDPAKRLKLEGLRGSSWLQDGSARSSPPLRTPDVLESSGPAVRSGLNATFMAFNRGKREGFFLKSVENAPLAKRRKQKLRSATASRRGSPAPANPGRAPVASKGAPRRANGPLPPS

The record followed here is patent US10087225B2, “Formulation of MK2 inhibitor peptides” (MOERAE MATRIX, INC., priority 2015, dated 2018).

Sequence of Snk(h) (Q9NYY3 whole entry): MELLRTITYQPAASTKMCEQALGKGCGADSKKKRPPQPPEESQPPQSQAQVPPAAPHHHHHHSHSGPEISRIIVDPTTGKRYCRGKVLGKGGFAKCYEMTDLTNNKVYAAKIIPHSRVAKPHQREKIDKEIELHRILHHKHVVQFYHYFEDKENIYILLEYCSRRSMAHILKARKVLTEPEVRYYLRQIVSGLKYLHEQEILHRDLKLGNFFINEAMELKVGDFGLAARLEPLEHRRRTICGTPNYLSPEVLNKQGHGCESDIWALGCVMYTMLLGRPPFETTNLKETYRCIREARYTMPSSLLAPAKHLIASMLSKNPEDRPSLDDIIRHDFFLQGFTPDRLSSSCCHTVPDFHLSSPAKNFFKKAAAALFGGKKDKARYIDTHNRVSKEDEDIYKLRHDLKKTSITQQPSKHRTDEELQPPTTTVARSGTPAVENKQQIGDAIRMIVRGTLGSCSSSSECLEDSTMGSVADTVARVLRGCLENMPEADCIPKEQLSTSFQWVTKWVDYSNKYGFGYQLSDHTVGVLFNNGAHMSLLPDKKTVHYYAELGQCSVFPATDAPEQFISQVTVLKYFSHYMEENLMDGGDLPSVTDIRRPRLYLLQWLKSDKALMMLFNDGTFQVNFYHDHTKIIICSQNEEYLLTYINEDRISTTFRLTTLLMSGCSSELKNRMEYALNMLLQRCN

With H-YARAAARQARAKALARQLGVAA-OH [MMI-0100], the activity at 100 µM at Ret(V804M)(h) was determined as 92%; at Snk(h) it was 94%.

Consider “HRRIKAWLKKIKALARQLGVAA (Mammalian) [MMI-0500]”, for which the “% activity” value amounted to 36% with Ret(V804M)(h) (100 μM); 18% in the assay with MKK6(h); 30% in the assay with PKBα(h); 6% in the assay with PKCγ(h); 122% with Snk(h) (100 μM); 23% with PKCϵ(h). Moreover, the “% activity” value in the assay with Hck(h) activated was 67%; with CaMKIIβ(h), 3%; with PKA(h), 118%; with IR(h) it was 95%; in the assay with Fer(h) it was 196%; with Pim-1(h), 0%. Also, the “% activity” value with MST1(h) is listed as 3%; in the assay with MSK2(h) it was 14%.

As for “YARAAARQARAKALNRQLGVA (Mammalian) [MMI-0200]”, the “% activity” value with MKK6(h) was 98%; in the assay with PKBα(h) it was 110%; with PKCγ(h) it was 101%; with PKCϵ(h) it was 98%; with Hck(h) activated, 100%; with CaMKIIβ(h), 53%. For the same substance, the “% activity” value was determined as 110% with PKA(h); 90% with IR(h); 101% with Fer(h); 18% with Pim-1(h); 72% with MST1(h); 88% with MSK2(h).
